Measured values taken from the Human Domainome abundance scans (Beltran et al. 2025).
± gives the uncertainty stated by the source.

B1: Protein S100-G, residues 1 to 79; numbered along this chain, P02633 (parent)
chain: MSAKKSPEELKGIFEKYAAKEGDPNQLSKEELKLLLQTEFPSLLKGPSTLDELFEELDKNGDGEVSFEEFQVLVKKISQ

Variants of: B1
Experiment: abundance fitness (aPCA) (normalised: wild type 0, dead -1); higher = more abundant; growth selection in yeast, the domain comes from the species named
Settings: Bos taurus

L36T and L36Y are within error of each other in abundance fitness: -0.203 ± 0.065 for the first, -0.209 ± 0.075 for the second.

Compared with L36V, L36S is lower in abundance fitness: -0.01 ± 0.067 for the first, -0.499 ± 0.063 for the second.

First: L36E
Second: L36R
The abundance fitness of the first is higher: -1.37 ± 0.11 for the first, -1.92 ± 0.092 for the second.

L36I and L36W are within error of each other in abundance fitness: -0.013 ± 0.076 for the first, -0.076 ± 0.087 for the second.

Compared with L36D, L36F is higher in abundance fitness: -2.17 ± 0.14 for the first, -0.008 ± 0.074 for the second.

Compared with L36Q, L36G is higher in abundance fitness: -0.789 ± 0.09 for the first, -0.589 ± 0.085 for the second.

First: L36H
Second: L36K
The abundance fitness of the first is higher: -1.08 ± 0.083 for the first, -1.98 ± 0.11 for the second.

K45L and K45D are within error of each other in abundance fitness: -0.018 ± 0.062 for the first, 0.07 ± 0.09 for the second.

K45T and K45M are within error of each other in abundance fitness: -0.005 ± 0.065 for the first, 0.002 ± 0.082 for the second.

K45C and K45N are within error of each other in abundance fitness: -0.066 ± 0.091 for the first, -0.022 ± 0.07 for the second.

Compared with K45P, K45A is lower in abundance fitness: 0.003 ± 0.068 for the first, -0.442 ± 0.082 for the second.

K45R and K45H are within error of each other in abundance fitness: 0.002 ± 0.069 for the first, 0.003 ± 0.075 for the second.

K45E and K45Q are within error of each other in abundance fitness: 0.005 ± 0.1 for the first, 0.042 ± 0.084 for the second.

E39Y and E39W are within error of each other in abundance fitness: -0.197 ± 0.075 for the first, -0.349 ± 0.1 for the second.

E39I and E39L are within error of each other in abundance fitness: -0.24 ± 0.078 for the first, -0.207 ± 0.065 for the second.

E39Q and E39S are within error of each other in abundance fitness: -0.21 ± 0.089 for the first, -0.308 ± 0.065 for the second.

E39N and E39H are within error of each other in abundance fitness: -0.138 ± 0.077 for the first, -0.059 ± 0.074 for the second.

E39T and E39C are within error of each other in abundance fitness: -0.218 ± 0.069 for the first, -0.295 ± 0.093 for the second.

Going from E39G to E39R, the abundance fitness rises from -0.809 ± 0.083 to -0.449 ± 0.076.

Going from E39P to E39K, the abundance fitness rises from -1.63 ± 0.097 to -0.33 ± 0.091.

First: E39F
Second: E39M
The abundance fitness of the first is lower: -0.345 ± 0.08 for the first, -0.177 ± 0.087 for the second.

E39V and E39D are within error of each other in abundance fitness: -0.304 ± 0.068 for the first, -0.16 ± 0.082 for the second.

Going from E39A to F40W, the abundance fitness rises from -0.515 ± 0.07 to 0.008 ± 0.095.

F40N and F40K are within error of each other in abundance fitness: -0.084 ± 0.077 for the first, -0.218 ± 0.084 for the second.

First: F40P
Second: F40M
The abundance fitness of the first is lower: -0.889 ± 0.079 for the first, 0.047 ± 0.081 for the second.

F40C and F40D are within error of each other in abundance fitness: -0.059 ± 0.082 for the first, -0.099 ± 0.091 for the second.

F40L and F40V are within error of each other in abundance fitness: -0.037 ± 0.062 for the first, -0.065 ± 0.072 for the second.

First: F40Y
Second: F40A
The abundance fitness of the first is higher: -0.011 ± 0.074 for the first, -0.189 ± 0.079 for the second.

First: F40E
Second: F40I
The abundance fitness of the first is lower: -0.158 ± 0.094 for the first, 0.019 ± 0.076 for the second.

F40T and F40S are within error of each other in abundance fitness: -0.106 ± 0.072 for the first, -0.16 ± 0.064 for the second.

F40Q and F40G are within error of each other in abundance fitness: -0.178 ± 0.081 for the first, -0.155 ± 0.085 for the second.

L44P and L44H are within error of each other in abundance fitness: 0.08 ± 0.075 for the first, -0.035 ± 0.078 for the second.

L44Q and L44D are within error of each other in abundance fitness: -0.037 ± 0.089 for the first, 0.033 ± 0.091 for the second.

L44G and L44T are within error of each other in abundance fitness: -0.047 ± 0.076 for the first, 0.035 ± 0.072 for the second.

L44C and L44S are within error of each other in abundance fitness: 0.002 ± 0.081 for the first, -0.047 ± 0.061 for the second.

L44Y and L44N are within error of each other in abundance fitness: 0.033 ± 0.074 for the first, 0.058 ± 0.076 for the second.

L44F and L44R are within error of each other in abundance fitness: -0.006 ± 0.07 for the first, -0.024 ± 0.068 for the second.

L44M and L44V are within error of each other in abundance fitness: -0.059 ± 0.081 for the first, 0.02 ± 0.069 for the second.

L44A and L44W are within error of each other in abundance fitness: 0.071 ± 0.071 for the first, 0.115 ± 0.092 for the second.

L44E and L44I are within error of each other in abundance fitness: 0.058 ± 0.1 for the first, 0.033 ± 0.082 for the second.

Q37T and Q37F are within error of each other in abundance fitness: 0.021 ± 0.067 for the first, -0.016 ± 0.074 for the second.

First: Q37S
Second: Q37G
The abundance fitness of the first is lower: -0.142 ± 0.063 for the first, 0.004 ± 0.08 for the second.

Q37C and Q37L are within error of each other in abundance fitness: -0.076 ± 0.083 for the first, -0.08 ± 0.06 for the second.

Q37M and Q37R are within error of each other in abundance fitness: -0.104 ± 0.078 for the first, 0.005 ± 0.067 for the second.

Q37W and Q37V are within error of each other in abundance fitness: -0.082 ± 0.085 for the first, -0.001 ± 0.072 for the second.

Q37E and Q37Y are within error of each other in abundance fitness: 0.019 ± 0.092 for the first, -0.118 ± 0.075 for the second.

Going from Q37K to Q37P, the abundance fitness falls from -0.008 ± 0.08 to -0.185 ± 0.072.

Q37H and Q37A are within error of each other in abundance fitness: -0.047 ± 0.078 for the first, -0.058 ± 0.074 for the second.

Q37I and Q37D are within error of each other in abundance fitness: -0.104 ± 0.072 for the first, 0.054 ± 0.088 for the second.

L43C and L43V are within error of each other in abundance fitness: -0.018 ± 0.092 for the first, 0.057 ± 0.068 for the second.

L43Q and L43K are within error of each other in abundance fitness: 0.028 ± 0.078 for the first, -0.001 ± 0.078 for the second.

L43R and L43F are within error of each other in abundance fitness: -0.077 ± 0.066 for the first, -0.02 ± 0.081 for the second.

L43A and L43S are within error of each other in abundance fitness: 0.013 ± 0.068 for the first, 0.023 ± 0.064 for the second.

L43I and L43P are within error of each other in abundance fitness: -0.012 ± 0.085 for the first, -0.032 ± 0.073 for the second.

L43D and L43T are within error of each other in abundance fitness: -0.119 ± 0.09 for the first, -0.07 ± 0.069 for the second.

L43N and L43Y are within error of each other in abundance fitness: -0.094 ± 0.082 for the first, 0.015 ± 0.078 for the second.

L43W and L43H are within error of each other in abundance fitness: -0.035 ± 0.078 for the first, -0.034 ± 0.081 for the second.

L43E and L43M are within error of each other in abundance fitness: 0.105 ± 0.09 for the first, 0.011 ± 0.079 for the second.

P41G and P41N are within error of each other in abundance fitness: 0.002 ± 0.072 for the first, -0.06 ± 0.081 for the second.

P41V and P41W are within error of each other in abundance fitness: -0.129 ± 0.069 for the first, -0.115 ± 0.085 for the second.

Going from P41A to P41C, the abundance fitness falls from 0.079 ± 0.074 to -0.159 ± 0.094.

P41Y and P41D are within error of each other in abundance fitness: -0.037 ± 0.09 for the first, -0.021 ± 0.092 for the second.

P41H and P41Q are within error of each other in abundance fitness: 0.066 ± 0.088 for the first, 0.025 ± 0.086 for the second.

P41R and P41M are within error of each other in abundance fitness: -0.059 ± 0.066 for the first, -0.091 ± 0.085 for the second.

P41L and P41F are within error of each other in abundance fitness: -0.072 ± 0.065 for the first, -0.019 ± 0.098 for the second.

Going from P41E to P41T, the abundance fitness rises from -0.191 ± 0.091 to 0.001 ± 0.073.

P41S and P41K are within error of each other in abundance fitness: 0.055 ± 0.068 for the first, 0.017 ± 0.087 for the second.

S42W and S42Y are within error of each other in abundance fitness: -0.098 ± 0.085 for the first, -0.047 ± 0.08 for the second.

S42K and S42F are within error of each other in abundance fitness: 0.061 ± 0.081 for the first, -0.049 ± 0.081 for the second.

S42T and S42I are within error of each other in abundance fitness: 0.084 ± 0.073 for the first, -0.035 ± 0.083 for the second.

S42N and S42D are within error of each other in abundance fitness: -0.009 ± 0.083 for the first, -0.046 ± 0.086 for the second.

First: S42E
Second: S42V
The abundance fitness of the first is higher: 0.116 ± 0.089 for the first, -0.058 ± 0.071 for the second.

S42R and S42C are within error of each other in abundance fitness: -0.056 ± 0.069 for the first, -0.074 ± 0.086 for the second.

S42G and S42A are within error of each other in abundance fitness: -0.023 ± 0.075 for the first, -0.011 ± 0.072 for the second.

S42M and S42H are within error of each other in abundance fitness: -0.07 ± 0.081 for the first, -0.087 ± 0.085 for the second.

S42P and T38D are within error of each other in abundance fitness: 0.008 ± 0.075 for the first, 0.096 ± 0.098 for the second.

T38L and T38F are within error of each other in abundance fitness: -0.073 ± 0.061 for the first, -0.002 ± 0.08 for the second.

T38G and T38N are within error of each other in abundance fitness: -0.1 ± 0.084 for the first, -0.056 ± 0.085 for the second.

T38I and T38M are within error of each other in abundance fitness: -0.004 ± 0.081 for the first, -0.045 ± 0.075 for the second.

T38C and T38Q are within error of each other in abundance fitness: -0.034 ± 0.095 for the first, 0.008 ± 0.082 for the second.

T38R and T38W are within error of each other in abundance fitness: -0.082 ± 0.071 for the first, -0.194 ± 0.089 for the second.

T38Y and T38H are within error of each other in abundance fitness: -0.074 ± 0.084 for the first, -0.045 ± 0.091 for the second.

T38V and T38A are within error of each other in abundance fitness: 0.014 ± 0.075 for the first, 0.027 ± 0.078 for the second.

T38P showed an abundance fitness of -0.642 ± 0.077.
